# US20120270784A1 (THERATECHNOLOGIES, published 2012)
# Where no end group is shown, it is not given here.
# T1: human GRF receptor (human, UniProt Q02643 23-423)
# T1 sequence (looked up): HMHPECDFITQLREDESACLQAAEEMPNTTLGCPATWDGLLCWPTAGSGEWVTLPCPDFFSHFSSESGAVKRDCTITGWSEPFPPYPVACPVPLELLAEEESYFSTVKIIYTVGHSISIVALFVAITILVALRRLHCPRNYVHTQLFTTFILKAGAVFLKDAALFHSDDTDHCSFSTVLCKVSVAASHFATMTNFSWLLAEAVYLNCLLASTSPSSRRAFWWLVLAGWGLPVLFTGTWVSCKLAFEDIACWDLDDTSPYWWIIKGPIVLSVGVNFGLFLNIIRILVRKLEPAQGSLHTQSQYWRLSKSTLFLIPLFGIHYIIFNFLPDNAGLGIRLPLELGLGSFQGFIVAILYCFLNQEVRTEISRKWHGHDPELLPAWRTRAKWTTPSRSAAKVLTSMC
# Target: T1, human GRF receptor
# Assay: cell-based or functional assay
row,Binder,EC50 as assessed by alkaline phosphatase (AP) induction [nM]
1,YADAIFTDSYRKVLAQLSARQDILARAARAAR (HELM PEPTIDE1{[CC/C=C/CC(=O)[*:2]].Y.A.D.A.I.F.T.D.S.Y.R.K.V.L.A.Q.L.S.A.R.Q.D.I.L.A.R.A.A.R.A.A.R.[am]}$$$$V2.0; SMILES CC/C=C/CC(=O)N[C@@H](Cc1ccc(O)cc1)C(=O)N[C@@H](C)C(=O)N[C@@H](CC(=O)O)C(=O)N[C@@H](C)C(=O)N[C@H](C(=O)N[C@@H](Cc1ccccc1)C(=O)N[C@H](C(=O)N[C@@H](CC(=O)O)C(=O)N[C@@H](CO)C(=O)N[C@@H](Cc1ccc(O)cc1)C(=O)N[C@@H](CCCNC(=N)N)C(=O)N[C@@H](CCCCN)C(=O)N[C@H](C(=O)N[C@@H](CC(C)C)C(=O)N[C@@H](C)C(=O)N[C@@H](CCC(N)=O)C(=O)N[C@@H](CC(C)C)C(=O)N[C@@H](CO)C(=O)N[C@@H](C)C(=O)N[C@@H](CCCNC(=N)N)C(=O)N[C@@H](CCC(N)=O)C(=O)N[C@@H](CC(=O)O)C(=O)N[C@H](C(=O)N[C@@H](CC(C)C)C(=O)N[C@@H](C)C(=O)N[C@@H](CCCNC(=N)N)C(=O)N[C@@H](C)C(=O)N[C@@H](C)C(=O)N[C@@H](CCCNC(=N)N)C(=O)N[C@@H](C)C(=O)N[C@@H](C)C(=O)N[C@@H](CCCNC(=N)N)C(N)=O)[C@@H](C)CC)C(C)C)[C@@H](C)O)[C@@H](C)CC) [Trans-3-hexenoyl-YADAIFTDSYRKVLAQLSARQDILARAARAAR-NH2 (SEQ ID NO: 27)],0.19
2,YXDAIFTDSYRKVLAQLKARQDILARAARAAR (HELM PEPTIDE1{Y.[dA].D.A.I.F.T.D.S.Y.R.K.V.L.A.Q.L.K.A.R.Q.D.I.L.A.R.A.A.R.A.A.R.[am]}$$$$V2.0; N-terminus assumed; SMILES CC[C@H](C)[C@H](NC(=O)[C@H](C)NC(=O)[C@H](CC(=O)O)NC(=O)[C@@H](C)NC(=O)[C@@H](N)Cc1ccc(O)cc1)C(=O)N[C@@H](Cc1ccccc1)C(=O)N[C@H](C(=O)N[C@@H](CC(=O)O)C(=O)N[C@@H](CO)C(=O)N[C@@H](Cc1ccc(O)cc1)C(=O)N[C@@H](CCCNC(=N)N)C(=O)N[C@@H](CCCCN)C(=O)N[C@H](C(=O)N[C@@H](CC(C)C)C(=O)N[C@@H](C)C(=O)N[C@@H](CCC(N)=O)C(=O)N[C@@H](CC(C)C)C(=O)N[C@@H](CCCCN)C(=O)N[C@@H](C)C(=O)N[C@@H](CCCNC(=N)N)C(=O)N[C@@H](CCC(N)=O)C(=O)N[C@@H](CC(=O)O)C(=O)N[C@H](C(=O)N[C@@H](CC(C)C)C(=O)N[C@@H](C)C(=O)N[C@@H](CCCNC(=N)N)C(=O)N[C@@H](C)C(=O)N[C@@H](C)C(=O)N[C@@H](CCCNC(=N)N)C(=O)N[C@@H](C)C(=O)N[C@@H](C)C(=O)N[C@@H](CCCNC(=N)N)C(N)=O)[C@@H](C)CC)C(C)C)[C@@H](C)O) [Y-a-DAIFTDSYRKVLAQLKARQDILARAARAAR-NH2 (SEQ ID NO: 28)],0.11
3,YXDAIFTDSYRKVLAQLKLRQDILARAARAAR (HELM PEPTIDE1{Y.[dA].D.A.I.F.T.D.S.Y.R.K.V.L.A.Q.L.K.L.R.Q.D.I.L.A.R.A.A.R.A.A.R.[am]}$$$$V2.0; N-terminus assumed; SMILES CC[C@H](C)[C@H](NC(=O)[C@H](C)NC(=O)[C@H](CC(=O)O)NC(=O)[C@@H](C)NC(=O)[C@@H](N)Cc1ccc(O)cc1)C(=O)N[C@@H](Cc1ccccc1)C(=O)N[C@H](C(=O)N[C@@H](CC(=O)O)C(=O)N[C@@H](CO)C(=O)N[C@@H](Cc1ccc(O)cc1)C(=O)N[C@@H](CCCNC(=N)N)C(=O)N[C@@H](CCCCN)C(=O)N[C@H](C(=O)N[C@@H](CC(C)C)C(=O)N[C@@H](C)C(=O)N[C@@H](CCC(N)=O)C(=O)N[C@@H](CC(C)C)C(=O)N[C@@H](CCCCN)C(=O)N[C@@H](CC(C)C)C(=O)N[C@@H](CCCNC(=N)N)C(=O)N[C@@H](CCC(N)=O)C(=O)N[C@@H](CC(=O)O)C(=O)N[C@H](C(=O)N[C@@H](CC(C)C)C(=O)N[C@@H](C)C(=O)N[C@@H](CCCNC(=N)N)C(=O)N[C@@H](C)C(=O)N[C@@H](C)C(=O)N[C@@H](CCCNC(=N)N)C(=O)N[C@@H](C)C(=O)N[C@@H](C)C(=O)N[C@@H](CCCNC(=N)N)C(N)=O)[C@@H](C)CC)C(C)C)[C@@H](C)O) [Y-a-DAIFTDSYRKVLAQLKLRQDILARAARAAR-NH2 (SEQ ID NO: 29)],0.08
4,YADAIFTDSYRKVLAQLKARQDILARAARAAR (HELM PEPTIDE1{[CC/C=C/CC(=O)[*:2]].Y.A.D.A.I.F.T.D.S.Y.R.K.V.L.A.Q.L.K.A.R.Q.D.I.L.A.R.A.A.R.A.A.R.[am]}$$$$V2.0; SMILES CC/C=C/CC(=O)N[C@@H](Cc1ccc(O)cc1)C(=O)N[C@@H](C)C(=O)N[C@@H](CC(=O)O)C(=O)N[C@@H](C)C(=O)N[C@H](C(=O)N[C@@H](Cc1ccccc1)C(=O)N[C@H](C(=O)N[C@@H](CC(=O)O)C(=O)N[C@@H](CO)C(=O)N[C@@H](Cc1ccc(O)cc1)C(=O)N[C@@H](CCCNC(=N)N)C(=O)N[C@@H](CCCCN)C(=O)N[C@H](C(=O)N[C@@H](CC(C)C)C(=O)N[C@@H](C)C(=O)N[C@@H](CCC(N)=O)C(=O)N[C@@H](CC(C)C)C(=O)N[C@@H](CCCCN)C(=O)N[C@@H](C)C(=O)N[C@@H](CCCNC(=N)N)C(=O)N[C@@H](CCC(N)=O)C(=O)N[C@@H](CC(=O)O)C(=O)N[C@H](C(=O)N[C@@H](CC(C)C)C(=O)N[C@@H](C)C(=O)N[C@@H](CCCNC(=N)N)C(=O)N[C@@H](C)C(=O)N[C@@H](C)C(=O)N[C@@H](CCCNC(=N)N)C(=O)N[C@@H](C)C(=O)N[C@@H](C)C(=O)N[C@@H](CCCNC(=N)N)C(N)=O)[C@@H](C)CC)C(C)C)[C@@H](C)O)[C@@H](C)CC) [Trans-3-hexenoyl-YADAIFTDSYRKVLAQLKARQDILARAARAAR-NH2 (SEQ ID NO: 31)],0.1
5,YXDAIFTDSYRKVLAQLKARQDLLARAARAAR (HELM PEPTIDE1{Y.[dA].D.A.I.F.T.D.S.Y.R.K.V.L.A.Q.L.K.A.R.Q.D.L.L.A.R.A.A.R.A.A.R.[am]}$$$$V2.0; N-terminus assumed; SMILES CC[C@H](C)[C@H](NC(=O)[C@H](C)NC(=O)[C@H](CC(=O)O)NC(=O)[C@@H](C)NC(=O)[C@@H](N)Cc1ccc(O)cc1)C(=O)N[C@@H](Cc1ccccc1)C(=O)N[C@H](C(=O)N[C@@H](CC(=O)O)C(=O)N[C@@H](CO)C(=O)N[C@@H](Cc1ccc(O)cc1)C(=O)N[C@@H](CCCNC(=N)N)C(=O)N[C@@H](CCCCN)C(=O)N[C@H](C(=O)N[C@@H](CC(C)C)C(=O)N[C@@H](C)C(=O)N[C@@H](CCC(N)=O)C(=O)N[C@@H](CC(C)C)C(=O)N[C@@H](CCCCN)C(=O)N[C@@H](C)C(=O)N[C@@H](CCCNC(=N)N)C(=O)N[C@@H](CCC(N)=O)C(=O)N[C@@H](CC(=O)O)C(=O)N[C@@H](CC(C)C)C(=O)N[C@@H](CC(C)C)C(=O)N[C@@H](C)C(=O)N[C@@H](CCCNC(=N)N)C(=O)N[C@@H](C)C(=O)N[C@@H](C)C(=O)N[C@@H](CCCNC(=N)N)C(=O)N[C@@H](C)C(=O)N[C@@H](C)C(=O)N[C@@H](CCCNC(=N)N)C(N)=O)C(C)C)[C@@H](C)O) [Y-a-DAIFTDSYRKVLAQLKARQDLLARAARAAR-NH2 (SEQ ID NO: 30)],0.18
6,YADAIFTDSYRKVLAQLKARQDLLARAARAAR (HELM PEPTIDE1{[CC/C=C/CC(=O)[*:2]].Y.A.D.A.I.F.T.D.S.Y.R.K.V.L.A.Q.L.K.A.R.Q.D.L.L.A.R.A.A.R.A.A.R.[am]}$$$$V2.0; SMILES CC/C=C/CC(=O)N[C@@H](Cc1ccc(O)cc1)C(=O)N[C@@H](C)C(=O)N[C@@H](CC(=O)O)C(=O)N[C@@H](C)C(=O)N[C@H](C(=O)N[C@@H](Cc1ccccc1)C(=O)N[C@H](C(=O)N[C@@H](CC(=O)O)C(=O)N[C@@H](CO)C(=O)N[C@@H](Cc1ccc(O)cc1)C(=O)N[C@@H](CCCNC(=N)N)C(=O)N[C@@H](CCCCN)C(=O)N[C@H](C(=O)N[C@@H](CC(C)C)C(=O)N[C@@H](C)C(=O)N[C@@H](CCC(N)=O)C(=O)N[C@@H](CC(C)C)C(=O)N[C@@H](CCCCN)C(=O)N[C@@H](C)C(=O)N[C@@H](CCCNC(=N)N)C(=O)N[C@@H](CCC(N)=O)C(=O)N[C@@H](CC(=O)O)C(=O)N[C@@H](CC(C)C)C(=O)N[C@@H](CC(C)C)C(=O)N[C@@H](C)C(=O)N[C@@H](CCCNC(=N)N)C(=O)N[C@@H](C)C(=O)N[C@@H](C)C(=O)N[C@@H](CCCNC(=N)N)C(=O)N[C@@H](C)C(=O)N[C@@H](C)C(=O)N[C@@H](CCCNC(=N)N)C(N)=O)C(C)C)[C@@H](C)O)[C@@H](C)CC) [Trans-3-hexenoyl-YADAIFTDSYRKVLAQLKARQDLLARAARAAR-NH2 (SEQ ID NO: 32)],0.11
7,YADAIFTDSYRKVLAQLKARQDILARAAR (HELM PEPTIDE1{[CC/C=C/CC(=O)[*:2]].Y.A.D.A.I.F.T.D.S.Y.R.K.V.L.A.Q.L.K.A.R.Q.D.I.L.A.R.A.A.R.[am]}$$$$V2.0; SMILES CC/C=C/CC(=O)N[C@@H](Cc1ccc(O)cc1)C(=O)N[C@@H](C)C(=O)N[C@@H](CC(=O)O)C(=O)N[C@@H](C)C(=O)N[C@H](C(=O)N[C@@H](Cc1ccccc1)C(=O)N[C@H](C(=O)N[C@@H](CC(=O)O)C(=O)N[C@@H](CO)C(=O)N[C@@H](Cc1ccc(O)cc1)C(=O)N[C@@H](CCCNC(=N)N)C(=O)N[C@@H](CCCCN)C(=O)N[C@H](C(=O)N[C@@H](CC(C)C)C(=O)N[C@@H](C)C(=O)N[C@@H](CCC(N)=O)C(=O)N[C@@H](CC(C)C)C(=O)N[C@@H](CCCCN)C(=O)N[C@@H](C)C(=O)N[C@@H](CCCNC(=N)N)C(=O)N[C@@H](CCC(N)=O)C(=O)N[C@@H](CC(=O)O)C(=O)N[C@H](C(=O)N[C@@H](CC(C)C)C(=O)N[C@@H](C)C(=O)N[C@@H](CCCNC(=N)N)C(=O)N[C@@H](C)C(=O)N[C@@H](C)C(=O)N[C@@H](CCCNC(=N)N)C(N)=O)[C@@H](C)CC)C(C)C)[C@@H](C)O)[C@@H](C)CC) [Trans-3-hexenoyl-YADAIFTDSYRKVLAQLKARQDILARAAR-NH2 (SEQ ID NO: 26)],0.13
8,Ac-YADAIFTDSYRKVLAQLSARKLLQDILSR-NH2 [Ac-YADAIFTDSYRKVLAQLSARKLLQDILSR-NH2 (SEQ ID NO: 43)],0.25
9,YSDAIFTDSYRKVLAQLKARQDILARAARAAR-NH2 [YSDAIFTDSYRKVLAQLKARQDILARAARAAR-NH2 (SEQ ID NO: 33)],0.25
